Among the data in article PMC2754851 are half-time of dissociation and koff values, retold here.

Where two headings read alike, the source gives them in different places.

Holding throughout (test): pull-down
Assay [1] addresses Doc1-4A APC/C (S. cerevisiae) (UniProt P53886).
The target in assay [2] is Cdc27-A2 APC/C (APC/C with Cdc27 L579A) (S. cerevisiae) (UniProt P53886).
Assay [3] deals with Doc1-4A APC/C (S. cerevisiae) (UniProt P53886). This is another data set of the same source.
Chain of Doc1-4A APC/C (S. cerevisiae) (P53886 whole entry, looked up): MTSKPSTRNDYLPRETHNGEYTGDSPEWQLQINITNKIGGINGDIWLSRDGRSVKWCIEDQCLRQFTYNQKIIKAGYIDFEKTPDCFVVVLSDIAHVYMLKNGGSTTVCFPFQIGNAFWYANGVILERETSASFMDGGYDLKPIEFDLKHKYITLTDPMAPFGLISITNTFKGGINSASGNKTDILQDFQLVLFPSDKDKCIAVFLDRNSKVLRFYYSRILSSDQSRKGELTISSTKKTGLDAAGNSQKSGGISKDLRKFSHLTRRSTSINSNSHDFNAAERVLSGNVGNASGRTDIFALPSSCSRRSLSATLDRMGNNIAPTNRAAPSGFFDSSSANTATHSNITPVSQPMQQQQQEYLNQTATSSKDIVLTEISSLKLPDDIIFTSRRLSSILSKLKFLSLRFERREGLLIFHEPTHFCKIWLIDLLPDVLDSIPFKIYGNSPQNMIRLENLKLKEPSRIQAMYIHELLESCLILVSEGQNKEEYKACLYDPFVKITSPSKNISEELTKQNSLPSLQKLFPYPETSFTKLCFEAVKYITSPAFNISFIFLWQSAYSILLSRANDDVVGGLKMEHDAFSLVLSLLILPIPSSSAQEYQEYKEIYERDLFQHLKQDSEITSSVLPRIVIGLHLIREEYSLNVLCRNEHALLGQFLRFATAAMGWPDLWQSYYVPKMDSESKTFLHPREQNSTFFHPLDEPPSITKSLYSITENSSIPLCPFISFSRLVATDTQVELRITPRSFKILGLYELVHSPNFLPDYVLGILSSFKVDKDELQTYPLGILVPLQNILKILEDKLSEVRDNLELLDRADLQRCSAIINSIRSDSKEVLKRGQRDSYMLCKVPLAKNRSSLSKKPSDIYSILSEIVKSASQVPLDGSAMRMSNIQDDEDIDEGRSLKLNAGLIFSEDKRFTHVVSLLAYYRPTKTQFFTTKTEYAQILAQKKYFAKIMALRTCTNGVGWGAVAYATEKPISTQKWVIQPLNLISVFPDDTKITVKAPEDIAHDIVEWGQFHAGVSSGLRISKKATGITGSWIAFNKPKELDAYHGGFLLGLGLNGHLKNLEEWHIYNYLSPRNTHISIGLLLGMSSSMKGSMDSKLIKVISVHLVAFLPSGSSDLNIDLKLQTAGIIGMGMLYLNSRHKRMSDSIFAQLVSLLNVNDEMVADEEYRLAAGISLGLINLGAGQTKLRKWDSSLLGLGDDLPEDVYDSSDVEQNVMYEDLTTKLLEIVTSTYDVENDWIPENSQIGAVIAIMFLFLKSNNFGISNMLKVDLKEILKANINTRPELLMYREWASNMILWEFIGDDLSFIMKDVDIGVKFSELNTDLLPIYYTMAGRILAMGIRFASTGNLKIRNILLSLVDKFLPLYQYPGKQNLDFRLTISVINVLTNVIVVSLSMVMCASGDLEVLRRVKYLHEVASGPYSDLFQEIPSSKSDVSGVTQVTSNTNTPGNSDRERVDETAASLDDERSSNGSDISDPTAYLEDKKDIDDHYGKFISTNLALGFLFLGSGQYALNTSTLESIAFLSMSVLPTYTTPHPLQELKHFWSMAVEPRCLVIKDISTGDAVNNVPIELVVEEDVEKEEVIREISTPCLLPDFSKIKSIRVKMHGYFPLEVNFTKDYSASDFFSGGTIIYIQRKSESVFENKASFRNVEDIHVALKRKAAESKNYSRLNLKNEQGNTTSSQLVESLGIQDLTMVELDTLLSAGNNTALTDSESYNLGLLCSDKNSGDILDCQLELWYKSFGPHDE

B1: in vitro translated Cdh1 (natural protein)
chain: MSTNLNPFMNNTPSSSPLKGSESKRVSKRPISSSSSASLLSSPSRRSRPSTVYGDRYIPSRTDIDFNSIVSISSMASVPALNPSSTEDQVEYQKERQAHETYNTLLKNELFGEMLSKDTVGSESSIDRIKNTRPSTRGNVHAENTTRHGYELERVSTPPPEAAGLEEFSPHSTPVTPRRLFTSQQDEITRPSSNSVRGASLLTYQQRKGRRLSAASLLQSQFFDSMSPVRPDSKQLLLSPGKQFRQIAKVPYRVLDAPSLADDFYYSLIDWSSTDVLAVALGKSIFLTDNNTGDVVHLCDTENEYTSLSWIGAGSHLAVGQANGLVEIYDVMKRKCIRTLSGHIDRVACLSWNNHVLTSGSRDHRILHRDVRMPDPFFETIESHTQEVCGLKWNVADNKLASGGNDNVVHVYEGTSKSPILTFDEHKAAVKAMAWSPHKRGVLATGGGTADRRLKIWNVNTSIKMSDIDSGSQICNMVWSKNTNELVTSHGYSKYNLTLWDCNSMDPIAILKGHSFRVLHLTLSNDGTTVVSGAGDETLRYWKLFDKPKAKVQPNSLIFDAFNQIR
modifications: 35S label
By koff is commonly meant a measure of how fast the partners let go of each other. Take B1: the results for the half-time of dissociation in assay [1], in assay [2] and in assay [3] were 22 min, 10 min and 20 min, respectively. The molecule further came in with an off-rate constant (koff) in assay [2] of 0.0011 s⁻¹.
